The values that follow are results of earlier work, collected in patent US11530434B2, “Cell mass evaluation method and device for analyzing state of cell mass” (HAMAMATSU PHOTONICS K.K., priority 2017, dated 2022).

For this data set, the system named is cell morphology. To be noted: compared to the control state.

B1: TGF-β2: reagent “TGF-β2” whose addition acts on the cell morphology (reported in Non-Patent Document 3) (protein, UniProt P61812 303-414, looked up)
Transforming growth factor …: ALDAAYCFRNVQDNCCLRPLYIDFKRDLGWKWIHEPKGYNANFCAGACPYLWSSDTQHSRVLSLYNTINPEASASPCCVSQDLEPLTILYYIGKTPKIEQLSNMIVKSCKCS
In the case of B1, the “change of cell shape on addition of the reagent” value is recorded as “makes the cell shape elongated”.
